According to patent US20220249563A1 (LEGEND BIOTECH IRELAND, published 2022):

T1: extracellular domain of human DLL3 protein (aa27-466) having an N-terminal FLAG tag (AdipoGen, AG-40B-0151) (human, UniProt Q9NYJ7 27-466)
T1 construct: range 27-466; also called DLL3 ECD protein
T1 sequence (looked up): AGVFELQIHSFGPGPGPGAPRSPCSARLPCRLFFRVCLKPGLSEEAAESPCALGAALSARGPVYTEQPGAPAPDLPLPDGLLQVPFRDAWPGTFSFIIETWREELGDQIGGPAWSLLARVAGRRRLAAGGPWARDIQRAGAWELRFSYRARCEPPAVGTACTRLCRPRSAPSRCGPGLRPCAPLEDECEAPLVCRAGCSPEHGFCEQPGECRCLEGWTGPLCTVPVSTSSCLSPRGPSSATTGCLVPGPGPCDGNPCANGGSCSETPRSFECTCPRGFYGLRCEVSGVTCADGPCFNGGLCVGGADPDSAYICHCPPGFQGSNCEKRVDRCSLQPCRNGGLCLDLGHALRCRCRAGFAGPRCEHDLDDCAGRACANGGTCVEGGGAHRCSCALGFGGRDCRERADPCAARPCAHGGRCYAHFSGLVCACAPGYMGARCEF

B1: AS63930 (VHH)
VHH: EVQLAESGGGSVQAGGSLRLSCAASGYTYSGNYMAWFRQAPGNEREGVAVVYNIDGGGRFTTYADSVKGRFTISRGNDKNTVYLQMNSLKPEDSGMYYCAAEVADPTWGSRDQRRYKYWGQGTQVTVSS
notes: camel sdAb; crude E. coli supernatant
B2: AS63948 (VHH)
VHH: QVQLVESGGGSVQAGGSLRLSCTASGYTYRYLYMGWFRQTPGKEREGVACIYTGSGSTGYADSVKGRFTISQDNAENTVYLQMNSLKPEDTAMYYCAAASPRWGGTCRRWSEYNYWGQGTQVTVSS
notes: as for B1
B3: AS64154 (VHH)
VHH: QVQLKESGGGSVQAGGSLRLSCTASGYTYRYLYMGWFRQTPGKEREGVACIYTGSGSTGYADSVKGRFTISQDNAKNTVYLQMNNLKPEDTAMYYCAASSPRWGGTCRRWSQYNYWGQGTQVTVSS
notes: as for B1
B4: AS64182 (VHH)
VHH: QVHLMESGGGSVQAGGSLRLSCTASGQTSRYLYMGWFRQTPGKEREGVACIYTGSGSTGYADSVKGRFTISQDNAKNTVYLQTNSLKPEDTAMYYCAASSPHWGGTCRRWSEYKYWGQGTQVTVSS
notes: as for B1
B5: AS64473 (VHH)
VHH: QVRLVESGGGSVQAGGSLRLSCTASGYTYRYLYMAWFRQTPGKEREGVACIYTGSGTTGYADSVKGRFTISQDNAKNTVYLQMNSLNAEDTAMYYCAASSPQWGGTCRRWSEYNYWGQGTQVTVSS
notes: as for B1
B6: AS64120 (VHH)
VHH: QVRLVESGGGSVQAGGSLRLSCETSRYIYGNNCMAWFRQAPGKEREGVASIYPAGGRPYYADSVKGRFTISQDNAKNTVYLQMDSLKPEDTAMYYCAARSFSIADCATQSGITRSNFAYWGQGTQVTVSS
notes: as for B1
B7: AS63951 (VHH)
VHH: QVHLMESGGGSVQAGGSLRLACETSRDIYGNNCMAWFRQAPGKEREGVASIYPAGGRPYYADSVKGRFTISQDNAKNTVYLQMDSLKPEDTAMYYCAARSFSIAVCATRSGITRSNFAYWGQGTQVTVSS
notes: as for B1
B8: AS64093 (VHH)
VHH: QVHLVESGGGSVQAGGSLRLSCATSRYIYGNNCMAWFRQAPGKEREGVASIYPAGGRTYYADSVKGRFTISQDNAKNTVYLQIDSLKPEDTAMYYCAARSFSIGVCATQSGITWSNFAYWGQGTQVTVSS
notes: as for B1
B9: AS64118 (VHH)
VHH: QVQLAESGGGSVQAGGSLRLSCAASGYTYSACRMAWYRQAPGKERELVSFINSAGSTYYADSVKGRFAISRDNAKTTVYLQMNALKAEDTAIYYCNTWDSSCRFQYWGQGTQVTVSS
notes: as for B1
B10: AS64163 (VHH)
VHH: QVRLVESGGGSVQAGGSLRLSCAVSGYRYRWNCMAWFRQAPGKEREGVAAISTGSGSTYYAGSVKGRFTISQDNAKNMYLQMNSLKPEDTAMYYCAADPSVCPGGMWYSKEYRYWGQGTQVTVSS
notes: as for B1
B11: AS64124 (VHH)
VHH: QVKLVESGGGSVQTGGSLRLSCAVSTYTPSNNYMGWFRQAPGKEREGVAAIATIGGTTRYADSVKGRFTISQDGAKNTIYLQMNGLKPEDTAMYYCAAGRPYSLPLPLPLESGAYRYWGQGTQVTVSS
notes: as for B1
B12: AS64135 (VHH)
VHH: QVKLVESGGGSVQAGGSLRLSCVASTSTYCRYYMRWYRQAPGKEREFVSAMQPDGTTSYSDSVKGRFTMSQDRANNMLYLQMNSLRPEDTAMYYCKRDPMGGSRTPCTSAWGQGTQVTVSS
notes: as for B1

These binders were tested against T1, extracellular domain of human DLL3 … (assay: ELISA (protein), FACS (cells)).

Binding result, binds:
B1, B2, B3, B4, B5, B6, B7, B8, B9, B10, B11, B12
